How the values were obtained:
[1] = molecular target: T1, DYRK1A (recombinant, N-terminally biotinylated) (UniProt Q13627 1-763, biotin on the N-terminus (sortase labelling with a synthetic biotin-LPETGG peptide onto the N-terminal glycine left after TEV cleavage)); assay: BLI
[2] = molecular target: T1, DYRK1A (recombinant, N-terminally …); assay: BLI; steady-state response analysis

B1: FAM53C (recombinant) (natural protein)
chain: MITLITEQLQKQTLDELKCTRFSISLPLPDHADISNCGNSFQLVSEGASWRGLPHCSCAEFQDSLNFSYHPSGLSLHLRPPSRGNSPKEQPFSQVLRPEPPDPEKLPVPPAPPSKRHCRSLSVPVDLSRWQPVWRPAPSKLWTPIKHRGSGGGGGPQVPHQSPPKRVSSLRFLQAPSASSQCAPAHRPYSPPFFSLALAQDSSRPCAASPQSGSWESDAESLSPCPPQRRFSLSPSLGPQASRFLPSARSSPASSPELPWRPRGLRNLPRSRSQPCDLDARKTGVKRRHEEDPRRLRPSLDFDKMNQKPYSGGLCLQETAREGSSISPPWFMACSPPPLSASCSPTGGSSQVLSESEEEEEGAVRWGRQALSKRTLCQRDFGDLDLNLIEEN
Binder B1 has a koff [1] of 0.04 s⁻¹ and a Kd [2] of 3.3 µM.

Source: paper PMC13132546 (2026)
